Data on 2 molecules can be found in patent publication US6440702.

As a reminder, the IC50 is the concentration at which inhibition is half-maximal. Higher therefore signals weaker potency.

For assay [1], the target named is T1, human CNTF receptor alpha component on MG87/CNTFR fibroblasts (human, UniProt P26992 23-342).
T1 construct: whole, on cells; Mouse fibroblast line transfected with the human CNTFalpha receptor gene; also called CNTFRalpha; MG87/huCNTFR
T1 sequence (looked up): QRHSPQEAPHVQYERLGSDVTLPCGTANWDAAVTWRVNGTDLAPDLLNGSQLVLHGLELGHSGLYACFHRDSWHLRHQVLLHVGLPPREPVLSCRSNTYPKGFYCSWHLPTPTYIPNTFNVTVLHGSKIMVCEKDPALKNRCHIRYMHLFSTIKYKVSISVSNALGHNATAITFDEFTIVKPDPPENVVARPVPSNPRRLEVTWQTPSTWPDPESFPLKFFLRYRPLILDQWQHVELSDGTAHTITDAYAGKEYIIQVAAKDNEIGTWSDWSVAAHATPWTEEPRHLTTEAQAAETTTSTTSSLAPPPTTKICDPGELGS
Put plainly: displacement of 125I-rat CNTF from MG87/CNTFR cells (human CNTF receptor). Here is the method: MG87/CNTFR is a fibroblast cell line transfected with the human CNTFα receptor gene (Squinto, et al., 1990, Neuron 5:757–766; Davis et al., 1991, Science 253:59–63). Binding Assays Binding was performed directly on cell monolayers. Cells in culture wells were washed once with assay buffer consisting of phosphate buffered saline (PBS; pH 7.4), 0.1 mM bacitracin, 1 mM PMSF, 1 µg/ml leupeptin, and 1 mg/ml BSA. […] Non-specific binding was determined in the presence of 1,000-fold excess of unlabelled CNTF. Specific binding towards MG87/CNTFR was 80–90%. Data were analyzed using the […] program (ISI, Philadelphia, Pa.).
For orientation: Loss of bound radioactivity is the signal in a displacement assay; it reports binding, not function.

Assay [2] deals with T2, rat CNTF receptor on rat superior cervical ganglia (SCG) neurons (rat, UniProt Q08406 23-342).
T2 construct: whole, on cells; also called rat receptor; SCGs
T2 sequence (looked up): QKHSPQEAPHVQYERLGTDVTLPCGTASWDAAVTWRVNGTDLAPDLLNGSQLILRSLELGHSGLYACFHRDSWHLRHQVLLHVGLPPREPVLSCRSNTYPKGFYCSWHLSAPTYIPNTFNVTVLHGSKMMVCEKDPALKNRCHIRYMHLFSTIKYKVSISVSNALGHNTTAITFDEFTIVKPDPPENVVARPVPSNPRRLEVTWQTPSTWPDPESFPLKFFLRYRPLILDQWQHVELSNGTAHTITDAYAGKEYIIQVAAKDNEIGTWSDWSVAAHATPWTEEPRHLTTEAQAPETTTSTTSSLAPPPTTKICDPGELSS
Put plainly: displacement of 125I-rat CNTF from rat SCG neuron monolayers.

B1: recombinant rat CNTF (ciliary neurotrophic factor) (ligand)
chain: AFAEQTPLTLHRRDLCSRSIWLARKIRSDLTALMESYVKHQGLNKNINLDSVDGVPVASTDRWSEMTEAERLQENLQAYRTFQGMLTKLLEDQRVHFTPTEGDFHQAIHTLMLQVDAFAYQLEELMVLLEQKIPENEADGMPATVGDGGLFEKKLWGLKVLQELSQWTVRSIHDLRVISSHQMGISALESHYGAKDKQM
notes: also called unlabelled rat CNTF
With B1, the IC50 in assay [1] came to 2.8 nM; in assay [2], 0.28 nM.

B2: recombinant human CNTF (ciliary neurotrophic factor) (ligand)
chain: AFTEHSPLTPHRRDLCSRSIWLARKIRSDLTALTESYVKHQGLNKNINLDSADGMPVASTDQWSELTEAERLQENLQAYRTFHVLLARLLEDQQVHFTPTEGDFHQAIHTLLLQVAAFAYQIEELMILLEYKIPRNEADGMPINVGDGGLFEKKLWGLKVLQELSQWTVRSIHDLRFISSHQTGIPARGSHYIANNKKM
notes: Position numbers (C17, Q63) count the methionine as 1; also called rHCNTF; hCNTF
With B2, in assay [1], the IC50 came out at 30 nM and the “fold less potent than rat CNTF” value turned out to be 12 fold. Further, in assay [2], the IC50 came out at 25 nM and the “fold less potent than unlabelled rat CNTF in displacing 125I-rat CNTF” value is 90 fold.
